From the RNAGym collection of RNA variant scans (doi:10.1093/nar/gkz1192) come the findings set out here.

To fix the notation:
B1: CPEB3 Ribozyme (parent)
chain: UAACAGGGGGCCACAGCAGAAGCGUUCACGUCGCAGCCCCUGUCAGAUUCUGGUGAAUCUGCGAAUUCUGCUGUAUAUCUC

Variants of B1 are the subject of the series. Kind of series: self-cleavage, relative activity (ratio to wild type); higher = more cleavage; in vitro, sequencing. The method, boiled down:
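Barcoded CPEB3 ribozyme mutants, produced by rounds of error-prone PCR, self-cleaved while being transcribed with T7 RNA polymerase for 5 hours at 37°C and during a subsequent 15 min DNase I step before EDTA was added. Sequencing of template-switched cDNA on Illumina gave cleaved and total reads, and DNA sequencing assigned barcodes to variants. Each variant's relative activity is its cleaved/total read fraction divided by the unmutated ribozyme's fraction, averaged across three batches. A variant needed a minimum of 5 reads.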
With C38U U51A, the self-cleavage is 0.46.
Then C39G C62U, with 0.08.
The value for C37U U76A was 0.55; that for C37U U76C was 0.57.
Then C40G A77G, with 0.08.
As for C38A G63U, the self-cleavage was 0.1.
Then C40A A64G, with 0.12.
With C39A U72A, the self-cleavage is 0.35.
The value for C39A U72C was 0.32; that for C39G U49C was 0.12.
The value for C37U A75G was 0.59; that for C37U U67C was 0.22.
Turning to C39A C68G, the self-cleavage worked out at 0.17.
Regarding C38A U74G, the self-cleavage is 0.27.
The value for C38U A77G was 0.74; that for C39U U69A was 0.44; that for C39U U69C was 0.32.
Take C40G U72G: the self-cleavage turned out to be 0.16.
The value for C40G U72C was 0.48; that for C38U A56G was 0.43.
In the case of C39U U41A, the self-cleavage was 0.25.
Then C39U A77U, with 0.81; and C39U A77G, with 0.83.
The value for C39G G70A was 0.15.
C39A A65G: the self-cleavage stood at 0.11.
Then C38G U49A, with 0.26; and C39U A64U, with 0.36.
Then C38A U51A, with 0.17; and C38A U51C, with 0.18; and C39U G46U, with 0.11.
Then C37U U66A, with 0.25; and C39G, with 0.3; and C39U, with 0.91.
On to C39A, for which the self-cleavage amounted to 0.31.
The value for C38A U69A was 0.19; that for C39G U48A was 0.15; that for C40G U41C was 0.32.
Then C40G U41A, with 0.26; and C40G U41G, with 0.6; and C40A U41C, with 0.36.
The value for C40A U41A was 0.1.
Regarding C38U U48C, the self-cleavage was determined as 0.35.
In the case of C38U A65G, the self-cleavage was 0.32.
The value for C38A A64U was 0.09.
In the case of C38A A64C, the self-cleavage was determined as 0.15.
For the variant C39U U51G, the self-cleavage was 0.89.
Regarding C39U U51A, the self-cleavage is 1.06.
The value for C37U U41A was 0.18.
Then C37U U41C, with 0.89; and C38G A77U, with 0.31.
The value for C40A U43A was 0.45.
Consider C40A U43C, for which the self-cleavage was determined as 0.14.
Then C40A, with 0.28; and C40G, with 0.29.
The value for C38A A65U was 0.28.
Regarding C37U U51C, the self-cleavage stood at 0.67.
The value for C37U U51A was 0.58.
Then C37U U51G, with 0.61.
Then C37U G63A, with 0.54.
C37U G63U: the self-cleavage was determined as 0.84.
Take C40A A56G: the self-cleavage stood at 0.23.
Then C40A A56U, with 0.2; and C40A G42U, with 0.31; and C40A A77G, with 0.28.
In the case of C37U U80A, the self-cleavage worked out at 0.99.
Take C37U U80C: the self-cleavage came out at 0.74.
Then C38G A75G, with 0.27; and C40A U78C, with 0.18.
The value for C40A U78A was 0.22; that for C38U U58G was 0.08.
Then C38U U58C, with 0.19.
For the variant C38U U78A, the self-cleavage is 1.17.
On to C38U U78C, for which the self-cleavage came out at 0.67.
With C39G A64G, the self-cleavage came to 0.38.
With C39G A64C, the self-cleavage is 0.17.
Take C39G A64U: the self-cleavage came out at 0.35.
Then C40A A57G, with 0.22; and C39U A56U, with 0.32; and C39U A56G, with 0.48.
The value for C38A U72C was 0.53.
Then C38A U72A, with 0.34; and C38A U72G, with 0.17; and C39U U76C, with 1.08.
Turning to C38A U78C, the self-cleavage was 0.33.
The value for C37U A57G was 0.58.
Then C39A U43A, with 0.38; and C39A U43C, with 0.4.
Turning to C40A C81G, the self-cleavage came to 0.07.
The value for C40A U69C was 0.25.
Then C40A U69G, with 0.11; and C39U U58C, with 0.3.
For the variant C39U U60C, the self-cleavage was 0.39.
On to C39U U60A, for which the self-cleavage was found to be 0.43.
The value for C38U G55U was 0.8; that for C38U G55A was 0.4.
The value for C39U U48C was 0.42; that for C39A U54C was 0.25; that for C39A U54A was 0.16.
The value for C38A U58C was 0.24.
In the case of C39A U66C, the self-cleavage came out at 0.39.
Then C39U U72A, with 0.98; and C39U U72G, with 1.06.
Take C39U U72C: the self-cleavage came out at 0.71.
Then C37U G55U, with 0.88; and C38U G46A, with 0.24; and C37U A64G, with 0.6.
Then C37U A64U, with 0.27; and C39A C71U, with 0.11.
The value for C39A A56G was 0.26; that for C39A A56U was 0.09.
Consider C39U U66C, for which the self-cleavage is 0.37.
As to C38G U41C, the self-cleavage was 0.19.
For the variant C39G U60A, the self-cleavage was 0.25.
Then C39U U54A, with 0.95; and C38U G53A, with 0.89; and C40A U51G, with 0.25.
With C40A U51A, the self-cleavage is 0.33.
For the variant C38A A45U, the self-cleavage was found to be 0.33.
For C37U C40G, the self-cleavage was 0.22.
Then C37U C40A, with 0.21; and C38U A47G, with 0.66.
The value for C39G A47G was 0.13; that for C40A U74A was 0.3.
The value for C39G U80A was 0.09.
For the variant C37U U60C, the self-cleavage turned out to be 0.35.
Then C37U U60A, with 0.24; and C38A U66A, with 0.12.
The value for C38A U66C was 0.15; that for C37U U72A was 0.27.
Then C37U U72C, with 0.79.
For the variant C39A U69A, the self-cleavage turned out to be 0.22.
Then C39A U69C, with 0.16; and C39A U69G, with 0.14; and C37U C44U, with 0.13.
Then C39U A75G, with 0.97; and C38U U76A, with 1.16.
As for C38U U76C, the self-cleavage was 1.01.
Then C37U C50A, with 0.47; and C39U U43C, with 0.35; and C39U U43A, with 1.12.
Consider C38U U74C, for which the self-cleavage is 1.26.
Then C38U U74A, with 1.1.
The value for C37U G52A was 0.93.
The value for C38U A45U was 0.35; that for C38U A45G was 0.58; that for C37U U78G was 1.
On to C37U U78C, for which the self-cleavage came to 0.56.
On to C40G A56U, for which the self-cleavage stood at 0.42.
As for C39U C71U, the self-cleavage worked out at 0.57.
The value for C39G U41G was 0.13; that for C39G U41A was 0.21.
Then C39A A57C, with 0.14; and C39A A57G, with 0.3.
Then C38G U43C, with 0.34; and C38G U43A, with 0.14.
For C40G U43C, the self-cleavage is 0.16.
Turning to C37U, the self-cleavage worked out at 0.79.
Then C38U G63A, with 0.6; and C38G A64G, with 0.2; and C38A U49A, with 0.27.
Turning to C38A U49C, the self-cleavage was 0.16.
On to C38A U41A, for which the self-cleavage came to 0.19.
Regarding C38A U41C, the self-cleavage is 0.43.
The value for C39A U58C was 0.19.
Then C38A U67A, with 0.17; and C39A A64G, with 0.05; and C39A A64U, with 0.22.
